Drawing on patent US20090092614A1, this text covers % IGF-1 inhibition upon antibody saturation, IC50 (read off the curve) and % IGF-2 inhibition upon antibody saturation for one substance.

Assay [1] addresses human IGF-1R(1-903)-Fc (human) (UniProt P08069). Description: blocking ELISA, competitor 320 nM IGF-1.
Assay [2] shares this target. The assay can be described thus: competition ELISA: biotinylated hIGF-1R-Fc on streptavidin plate, antibody titrated in 320 nM human IGF-1 His (blocked ligand), anti-His-HRP detection. (In general: In an ELISA, binding on a coated surface is turned into a signal by an enzyme label.)
Assay [3] has the same target. Description: blocking ELISA, competitor 640 nM IGF-2.

Chain of human IGF-1R(1-903)-Fc (human) (P08069 31-933): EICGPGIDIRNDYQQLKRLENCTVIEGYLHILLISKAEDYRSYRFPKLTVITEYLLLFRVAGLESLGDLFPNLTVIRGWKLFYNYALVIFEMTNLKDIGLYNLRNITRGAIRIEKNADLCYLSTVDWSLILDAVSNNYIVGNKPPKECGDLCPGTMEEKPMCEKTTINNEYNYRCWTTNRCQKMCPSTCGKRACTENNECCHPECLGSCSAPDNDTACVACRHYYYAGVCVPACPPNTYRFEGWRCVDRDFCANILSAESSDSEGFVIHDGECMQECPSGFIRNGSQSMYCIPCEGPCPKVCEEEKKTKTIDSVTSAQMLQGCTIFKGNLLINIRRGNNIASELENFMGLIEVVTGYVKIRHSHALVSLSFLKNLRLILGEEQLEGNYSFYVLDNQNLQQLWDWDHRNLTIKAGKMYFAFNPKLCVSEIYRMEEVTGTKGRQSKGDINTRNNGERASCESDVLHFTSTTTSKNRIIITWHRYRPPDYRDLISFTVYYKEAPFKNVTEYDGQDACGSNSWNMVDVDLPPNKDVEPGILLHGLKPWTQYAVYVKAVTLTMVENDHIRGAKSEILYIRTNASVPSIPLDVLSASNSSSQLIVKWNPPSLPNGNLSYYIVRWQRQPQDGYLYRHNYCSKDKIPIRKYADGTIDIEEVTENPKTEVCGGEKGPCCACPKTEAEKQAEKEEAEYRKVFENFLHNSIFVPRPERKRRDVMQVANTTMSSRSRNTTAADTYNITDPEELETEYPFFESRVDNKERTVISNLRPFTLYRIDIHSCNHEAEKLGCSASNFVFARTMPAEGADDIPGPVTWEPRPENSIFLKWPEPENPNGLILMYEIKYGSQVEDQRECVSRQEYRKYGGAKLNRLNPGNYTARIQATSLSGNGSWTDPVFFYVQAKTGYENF

αIR3 (antibody) came in with a % IGF-1 inhibition upon antibody saturation in assay [1] of 23%. In assay [2], this substance showed an IC50 (read off the curve) of 4 nM. In addition, the % IGF-2 inhibition upon antibody saturation in assay [3] was 60%.
